Laboratory results: patent publication US10941182 (Amgen, dated 2021)
Starred links: 1 amine or outer side, 2 acyl side, 3 side chain; linkers in the order of their positions; H or OH if unused. Non-standard residues stand in square brackets, D forms with d. *: point of attachment. AC4Abu = α-carboxy-4-aminobutyric acid, O=C(C(CCN[*:1])C(=O)[*:3])[*:2]; Oic = O=C(O)[C@@H]1C[C@@H]2CCCC[C@@H]2N1; Phe(4-Cl) = N[C@@H](Cc1ccc(Cl)cc1)C(=O)O; dPhe(4-Cl) = N[C@H](Cc1ccc(Cl)cc1)C(=O)O; γGlu = O=C(O)[C@H](CCC(=O)[*:2])N[*:1]; 2Nal = N[C@@H](Cc1ccc2ccccc2c1)C(=O)O; NMeR = CN[C@@H](CCCNC(=N)N)C(=O)O; Tridecanoyl = CCCCCCCCCCCCC(=O)*; hArg = N=C(N)NCCCC[C@H](N)C(=O)O; 3Pal = N[C@@H](Cc1cccnc1)C(=O)O; Cha = N[C@@H](CC1CCCCC1)C(=O)O; αMeL = CC(C)C[C@](C)(N)C(=O)O; β3hL = CC(C)C[C@H](N)CC(=O)O; Nle = CCCC[C@H](N)C(=O)O; AEEA = NCCOCCOCC(=O)O; βAla = NCCC(=O)O; BLys = β-lysine

Assays:
human APJ receptor = target: T1, human APJ receptor (human, UniProt P35414 1-380); test: cell-based or functional assay
T1 sequence (looked up): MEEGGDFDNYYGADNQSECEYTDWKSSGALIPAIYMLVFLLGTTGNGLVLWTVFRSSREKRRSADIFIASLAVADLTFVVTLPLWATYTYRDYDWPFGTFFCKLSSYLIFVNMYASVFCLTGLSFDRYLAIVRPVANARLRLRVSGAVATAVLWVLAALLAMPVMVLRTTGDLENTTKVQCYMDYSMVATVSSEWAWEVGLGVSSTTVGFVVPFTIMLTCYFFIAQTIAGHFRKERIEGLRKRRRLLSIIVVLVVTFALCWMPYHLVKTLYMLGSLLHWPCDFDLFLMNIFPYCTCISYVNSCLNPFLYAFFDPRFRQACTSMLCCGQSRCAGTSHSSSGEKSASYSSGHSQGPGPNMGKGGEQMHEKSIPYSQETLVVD

rat APJ receptor = target: T2, rat APJ receptor (rat, UniProt Q9JHG3 1-377); test: cell-based or functional assay
T2 sequence (looked up): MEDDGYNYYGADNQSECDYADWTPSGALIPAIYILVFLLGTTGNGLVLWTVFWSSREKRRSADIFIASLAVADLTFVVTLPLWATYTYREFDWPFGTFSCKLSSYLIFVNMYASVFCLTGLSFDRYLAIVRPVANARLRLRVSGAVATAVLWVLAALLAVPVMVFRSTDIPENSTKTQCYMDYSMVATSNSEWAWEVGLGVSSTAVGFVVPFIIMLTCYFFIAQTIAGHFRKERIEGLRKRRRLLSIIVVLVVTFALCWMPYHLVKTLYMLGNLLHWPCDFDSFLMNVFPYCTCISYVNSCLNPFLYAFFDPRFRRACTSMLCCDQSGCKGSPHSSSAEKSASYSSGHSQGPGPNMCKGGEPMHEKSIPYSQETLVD

Tridecanoyl-[γGlu][AEEA][AEEA][dQ][hArg]P[NMeR][Cha]SH[BLys]G[Oic][Nle]P[dPhe(4-Cl)]-OH [Apelin polypeptide SEQ ID NO: 306]
EC50 Human APJ Receptor (GTPγS assay) (human APJ receptor): 74.1 nM | EC50 Rat APJ Receptor (GTPγS assay) (rat APJ receptor): 136 nM

B1: Apelin polypeptide SEQ ID NO: 302 (peptide)
peptide: Tridecanoyl-[γGlu][AEEA][AEEA][dQ][hArg]P[NMeR][β3hL]SHKG[Oic][Nle]P[dPhe(4-Cl)]-OH
SMILES: CCCCCCCCCCCCC(=O)N[C@@H](CCC(=O)NCCOCCOCC(=O)NCCOCCOCC(=O)N[C@H](CCC(N)=O)C(=O)N[C@@H](CCCCNC(=N)N)C(=O)N1CCC[C@H]1C(=O)N(C)[C@@H](CCCNC(=N)N)C(=O)N[C@H](CC(=O)N[C@@H](CO)C(=O)N[C@@H](Cc1c[nH]cn1)C(=O)N[C@@H](CCCCN)C(=O)NCC(=O)N1[C@H](C(=O)N[C@@H](CCCC)C(=O)N2CCC[C@H]2C(=O)N[C@H](Cc2ccc(Cl)cc2)C(=O)O)C[C@@H]2CCCC[C@@H]21)CC(C)C)C(=O)O
EC50 Human APJ Receptor (GTPγS assay) (human APJ receptor): 16.5 nM | EC50 Rat APJ Receptor (GTPγS assay) (rat APJ receptor): 14.3 nM

B2: Apelin polypeptide SEQ ID NO: 473 (peptide)
peptide: Tridecanoyl-[γGlu][AEEA][AEEA]Q[hArg]P[NMeR][αMeL]SHKGP[Nle]P[2Nal]-OH
SMILES: CCCCCCCCCCCCC(=O)N[C@@H](CCC(=O)NCCOCCOCC(=O)NCCOCCOCC(=O)N[C@@H](CCC(N)=O)C(=O)N[C@@H](CCCCNC(=N)N)C(=O)N1CCC[C@H]1C(=O)N(C)[C@@H](CCCNC(=N)N)C(=O)N[C@@](C)(CC(C)C)C(=O)N[C@@H](CO)C(=O)N[C@@H](Cc1c[nH]cn1)C(=O)N[C@@H](CCCCN)C(=O)NCC(=O)N1CCC[C@H]1C(=O)N[C@@H](CCCC)C(=O)N1CCC[C@H]1C(=O)N[C@@H](Cc1ccc2ccccc2c1)C(=O)O)C(=O)O
EC50 Human APJ Receptor (GTPγS assay) (human APJ receptor): 0.099 nM | EC50 Rat APJ Receptor (GTPγS assay) (rat APJ receptor): 0.465 nM

B3: Apelin polypeptide SEQ ID NO: 304 (peptide)
peptide: Tridecanoyl-[γGlu][AEEA][AEEA][dQ][hArg]P[NMeR][Cha]S[βAla]KG[Oic][Nle]P[dPhe(4-Cl)]-OH
SMILES: CCCCCCCCCCCCC(=O)N[C@@H](CCC(=O)NCCOCCOCC(=O)NCCOCCOCC(=O)N[C@H](CCC(N)=O)C(=O)N[C@@H](CCCCNC(=N)N)C(=O)N1CCC[C@H]1C(=O)N(C)[C@@H](CCCNC(=N)N)C(=O)N[C@@H](CC1CCCCC1)C(=O)N[C@@H](CO)C(=O)NCCC(=O)N[C@@H](CCCCN)C(=O)NCC(=O)N1[C@H](C(=O)N[C@@H](CCCC)C(=O)N2CCC[C@H]2C(=O)N[C@H](Cc2ccc(Cl)cc2)C(=O)O)C[C@@H]2CCCC[C@@H]21)C(=O)O
EC50 Human APJ Receptor (GTPγS assay) (human APJ receptor): 139 nM | EC50 Rat APJ Receptor (GTPγS assay) (rat APJ receptor): 260 nM

XXXQRPRLSHKGPXPF ({TDA}[AC4Abu][Aeea][Aeea]Q[hArg]P[NMeArg][aMeLeu]SHKGP[Nle]P[4-Cl-F]{COOH}) [Apelin polypeptide SEQ ID NO: 460]
EC50 Human APJ Receptor (GTPγS assay) (human APJ receptor): 0.0347 nM | EC50 Rat APJ Receptor (GTPγS assay) (rat APJ receptor): 0.0628 nM

B4: Apelin polypeptide SEQ ID NO: 303 (peptide)
peptide: Tridecanoyl-[AC4Abu][AEEA][AEEA][dQ][hArg]P[NMeR][Cha][βAla]HKG[Oic][Nle]P[dPhe(4-Cl)]-OH
SMILES: CCCCCCCCCCCCC(=O)NCCC(C(=O)O)C(=O)NCCOCCOCC(=O)NCCOCCOCC(=O)N[C@H](CCC(N)=O)C(=O)N[C@@H](CCCCNC(=N)N)C(=O)N1CCC[C@H]1C(=O)N(C)[C@@H](CCCNC(=N)N)C(=O)N[C@@H](CC1CCCCC1)C(=O)NCCC(=O)N[C@@H](Cc1c[nH]cn1)C(=O)N[C@@H](CCCCN)C(=O)NCC(=O)N1[C@H](C(=O)N[C@@H](CCCC)C(=O)N2CCC[C@H]2C(=O)N[C@H](Cc2ccc(Cl)cc2)C(=O)O)C[C@@H]2CCCC[C@@H]21
EC50 Human APJ Receptor (GTPγS assay) (human APJ receptor): 79.2 nM | EC50 Rat APJ Receptor (GTPγS assay) (rat APJ receptor): 74.1 nM

B5: Apelin polypeptide SEQ ID NO: 293 (peptide)
peptide: Tridecanoyl-[γGlu][AEEA][AEEA][dQ][hArg]P[NMeR][Cha]SH[βAla]G[Oic][Nle]P[dPhe(4-Cl)]-OH
SMILES: CCCCCCCCCCCCC(=O)N[C@@H](CCC(=O)NCCOCCOCC(=O)NCCOCCOCC(=O)N[C@H](CCC(N)=O)C(=O)N[C@@H](CCCCNC(=N)N)C(=O)N1CCC[C@H]1C(=O)N(C)[C@@H](CCCNC(=N)N)C(=O)N[C@@H](CC1CCCCC1)C(=O)N[C@@H](CO)C(=O)N[C@@H](Cc1c[nH]cn1)C(=O)NCCC(=O)NCC(=O)N1[C@H](C(=O)N[C@@H](CCCC)C(=O)N2CCC[C@H]2C(=O)N[C@H](Cc2ccc(Cl)cc2)C(=O)O)C[C@@H]2CCCC[C@@H]21)C(=O)O
EC50 Human APJ Receptor (GTPγS assay) (human APJ receptor): 109 nM | EC50 Rat APJ Receptor (GTPγS assay) (rat APJ receptor): 110 nM

B6: Apelin polypeptide SEQ ID NO: 488 (peptide)
peptide: Tridecanoyl-[γGlu][AEEA][AEEA][dQ][hArg]P[hArg][Cha]SHKG[Oic][Nle]P[Phe(4-Cl)]-OH
SMILES: CCCCCCCCCCCCC(=O)N[C@@H](CCC(=O)NCCOCCOCC(=O)NCCOCCOCC(=O)N[C@H](CCC(N)=O)C(=O)N[C@@H](CCCCNC(=N)N)C(=O)N1CCC[C@H]1C(=O)N[C@@H](CCCCNC(=N)N)C(=O)N[C@@H](CC1CCCCC1)C(=O)N[C@@H](CO)C(=O)N[C@@H](Cc1c[nH]cn1)C(=O)N[C@@H](CCCCN)C(=O)NCC(=O)N1[C@H](C(=O)N[C@@H](CCCC)C(=O)N2CCC[C@H]2C(=O)N[C@@H](Cc2ccc(Cl)cc2)C(=O)O)C[C@@H]2CCCC[C@@H]21)C(=O)O
EC50 Human APJ Receptor (GTPγS assay) (human APJ receptor): 0.198 nM | EC50 Rat APJ Receptor (GTPγS assay) (rat APJ receptor): 1.72 nM

B7: Apelin polypeptide SEQ ID NO: 359 (peptide)
peptide: Tridecanoyl-[γGlu][AEEA][AEEA]Q[hArg]P[NMeR][αMeL]SHKG[Oic][Nle]P[Phe(4-Cl)]-OH
SMILES: CCCCCCCCCCCCC(=O)N[C@@H](CCC(=O)NCCOCCOCC(=O)NCCOCCOCC(=O)N[C@@H](CCC(N)=O)C(=O)N[C@@H](CCCCNC(=N)N)C(=O)N1CCC[C@H]1C(=O)N(C)[C@@H](CCCNC(=N)N)C(=O)N[C@@](C)(CC(C)C)C(=O)N[C@@H](CO)C(=O)N[C@@H](Cc1c[nH]cn1)C(=O)N[C@@H](CCCCN)C(=O)NCC(=O)N1[C@H](C(=O)N[C@@H](CCCC)C(=O)N2CCC[C@H]2C(=O)N[C@@H](Cc2ccc(Cl)cc2)C(=O)O)C[C@@H]2CCCC[C@@H]21)C(=O)O
EC50 Human APJ Receptor (GTPγS assay) (human APJ receptor): 0.0529 nM | EC50 Rat APJ Receptor (GTPγS assay) (rat APJ receptor): 0.116 nM

B8: Apelin polypeptide SEQ ID NO: 305 (peptide)
peptide: Tridecanoyl-[γGlu][AEEA][AEEA][dQ][hArg]P[NMeR][Cha]SH[3Pal]G[Oic][Nle]P[dPhe(4-Cl)]-OH
SMILES: CCCCCCCCCCCCC(=O)N[C@@H](CCC(=O)NCCOCCOCC(=O)NCCOCCOCC(=O)N[C@H](CCC(N)=O)C(=O)N[C@@H](CCCCNC(=N)N)C(=O)N1CCC[C@H]1C(=O)N(C)[C@@H](CCCNC(=N)N)C(=O)N[C@@H](CC1CCCCC1)C(=O)N[C@@H](CO)C(=O)N[C@@H](Cc1c[nH]cn1)C(=O)N[C@@H](Cc1cccnc1)C(=O)NCC(=O)N1[C@H](C(=O)N[C@@H](CCCC)C(=O)N2CCC[C@H]2C(=O)N[C@H](Cc2ccc(Cl)cc2)C(=O)O)C[C@@H]2CCCC[C@@H]21)C(=O)O
EC50 Human APJ Receptor (GTPγS assay) (human APJ receptor): 78 nM | EC50 Rat APJ Receptor (GTPγS assay) (rat APJ receptor): 66.7 nM

B9: Apelin polypeptide SEQ ID NO: 489 (peptide)
peptide: Tridecanoyl-[γGlu][AEEA][AEEA]Q[hArg]P[hArg][Cha]SHKG[Oic][Nle]P[Phe(4-Cl)]-OH
SMILES: CCCCCCCCCCCCC(=O)N[C@@H](CCC(=O)NCCOCCOCC(=O)NCCOCCOCC(=O)N[C@@H](CCC(N)=O)C(=O)N[C@@H](CCCCNC(=N)N)C(=O)N1CCC[C@H]1C(=O)N[C@@H](CCCCNC(=N)N)C(=O)N[C@@H](CC1CCCCC1)C(=O)N[C@@H](CO)C(=O)N[C@@H](Cc1c[nH]cn1)C(=O)N[C@@H](CCCCN)C(=O)NCC(=O)N1[C@H](C(=O)N[C@@H](CCCC)C(=O)N2CCC[C@H]2C(=O)N[C@@H](Cc2ccc(Cl)cc2)C(=O)O)C[C@@H]2CCCC[C@@H]21)C(=O)O
EC50 Human APJ Receptor (GTPγS assay) (human APJ receptor): 0.601 nM | EC50 Rat APJ Receptor (GTPγS assay) (rat APJ receptor): 3.59 nM

B10: Apelin polypeptide SEQ ID NO: 358 (peptide)
peptide: Tridecanoyl-[γGlu][AEEA][AEEA]Q[hArg]P[hArg]LSHKG[Oic][Nle]P[Phe(4-Cl)]-OH
SMILES: CCCCCCCCCCCCC(=O)N[C@@H](CCC(=O)NCCOCCOCC(=O)NCCOCCOCC(=O)N[C@@H](CCC(N)=O)C(=O)N[C@@H](CCCCNC(=N)N)C(=O)N1CCC[C@H]1C(=O)N[C@@H](CCCCNC(=N)N)C(=O)N[C@@H](CC(C)C)C(=O)N[C@@H](CO)C(=O)N[C@@H](Cc1c[nH]cn1)C(=O)N[C@@H](CCCCN)C(=O)NCC(=O)N1[C@H](C(=O)N[C@@H](CCCC)C(=O)N2CCC[C@H]2C(=O)N[C@@H](Cc2ccc(Cl)cc2)C(=O)O)C[C@@H]2CCCC[C@@H]21)C(=O)O
EC50 Human APJ Receptor (GTPγS assay) (human APJ receptor): 0.285 nM | EC50 Rat APJ Receptor (GTPγS assay) (rat APJ receptor): 0.314 nM
